For test [1], the system named is human Mo-DCs. The experiment in a line: Quantitative RT-PCR of CCR7, IDO, BIC-1, SOD2 in Mo-DCs. In kind it is cell-based. Details: key to IDO / BIC-1: (−) negligible; (+) low; (++) moderate; (+++) high. As to the method:
Mo-DCs (10^6/condition) were harvested at day 7 and the mRNA was extracted using the RNeasy RNA Isolation kit (Qiagen) and incubated with RNase-free DNase I (Ambion, Austin, Tex.) according to the manufacturer's protocol. A two-step real-time RT-PCR technique was used to determine the relative mRNA levels of human CCR7, BIC-1, IDO and SOD2. Reverse transcription reactions were performed with 500 ng of total RNA using the Omniscript RT kit (Qiagen). Quantification of mRNA levels was performed by real-time polymerase chain reaction (PCR) with the use of the LightCycler technology (Roche Molecular Biochemicals, Indianapolis, Ind.). The following primers were used: CCR7-f (5′-TGGGCATCTGGATACTAGC-3′) (SEQ ID NO:6), CCR7-r (5′-AAGAAAGGGTTGACGCAGC-3′) (SEQ ID NO:7); IDO-f (5′-[…]-3′) (SEQ ID NO:8); IDO-r (5′-[…]-3′) (SEQ ID NO:9); BIC-1-f (5′-[…]-3′) (SEQ ID NO:10), BIC-1-r (5′-[…]-3′) (SEQ ID NO:11); SOD2-f (5′-GACAAACCTCAGCCCTAAC-3′) (SEQ ID NO:12), SOD2-r (5′-[…]-3′) (SEQ ID NO:13), yielding products of 435, 227, 296 bp, and 248 bp, respectively. These gene-specific primer pairs were designed using Oligo 4.0 and Primer 3 software packages (MBI, Cascade, Colo.) and selected to prevent primer-dimer formation.
All samples were normalized with the use of the following primer set for the constitutively expressed human cyclophilin gene: CypA-f (5′-[…]-3′) (SEQ ID NO:14) and CypA-r (5′-CACCACATGCTTGCCATCC-3′) (SEQ ID NO:15) (Pluvinet R. et al., 2004, Blood. 104: 3642-3646). All primers were purchased from Bonsai Technologies (Copenhagen, Denmark).
PCR amplifications were performed in a 20 μl volume containing 2 μl ready-to-use reaction mix, 10×DNA Master SYBR Green I (Roche Molecular Biochemicals); MgCl2 (3 mM for CCR7; 4 mM for BIC-1 and SOD2, and 5 mM for IDO); 0.15 μM of each primer; 5% dimethyl sulfoxide (DMSO); and 75 ng cDNA as template. The amplification program used an initial denaturation at 95° C. for 10 min, followed by 45 cycles: 95° C. for 1 sec; 58° C. (CCR7 and SOD2)/60° C. (BIC-1 and IDO) for 5 sec; 72° C. for 10 sec.

The subject of test [2] is human Mo-DCs. Kind of test: Scanning electron microscopy of Mo-DC surface morphology. More on the design: key to Dendrite density and lenght: (−) negligible; (+) low; (++) moderate; (+++) high. In kind it is cell-based. The procedure:
Monocytes were seeded on glass slides covered with either poly-L-lysine (25 μg/ml) or fibronectin (42 μg/ml), cultured for 5 days in complete RPMI medium supplemented with 800 U/ml GM-CSF, 500 U/ml IL-4, and the C4BP isoforms α7β1, α7β0, or Factor H (10 μg/ml), and further stimulated with LPS for 48 hours in the same medium. The resulting DCs were fixed in 1% paraformaldehyde and 1.25% glutaraldehyde in cacodylate buffer for 2 h. Finally, the cells were post-fixed in 1% OsO4, and dehydrated with graded series of ethanol followed by acetone. After dehydration the cells were dried in a critical-point dryer and coated with gold before observation by scanning electron microscopy (Zeiss DSM940A).

The test system of the next test is NSG immunodeficient mice. Kind of test: Human xeno-graft-versus-host disease (xeno-GvHD) model. In kind it is in vivo. The settings on record: co-transfer or late infusion of treated monocyte-derived DCs (5×10^5/mouse) with human PBMCs; versus PBMCs alone. The source says:
We assessed the in vivo tolerogenic or regulatory capacity of C4BP(β^−)-treated or Factor H-treated monocyte-derived DCs in a human xeno-graft-versus-host disease (xeno-GvHD) model (King et al. (2009) Clin. Exp. Immunol. 157: 104-118). Intravenous injection of human peripheral blood mononuclear cells (PBMCs; 10×10^6/mouse) induced xeno-GvHD in NSG immunodeficient mice (The Jackson Laboratory) (8-12 weeks of age) (median survival time 30-40 days).

Another test concerns immature Mo-DCs. Kind of test: Endocytic activity (DQ-OVA uptake). In kind it is cell-based, human. Details: key: (−) negligible; (+) low; (++) moderate; (+++) high. The settings on record: functional assay. As to the method: To measure the phagocytic activity of iDCs, 2×10^5 cells/ml were resuspended in 100 μl of PBS and incubated with 4 μl of BODIPY FL-conjugated DQ-Ovalbumin (1 mg/ml, DQ-OVA, Molecular Probes, Leiden, Netherlands) at 37° C. or at 0° C. for 15 min. The incubations were stopped by adding 1 ml of cold FACS buffer. The cells were washed two times with cold FACS buffer and their fluorescence analyzed using a FACScalibur flow cytometer (Becton-Dickinson).

For the next test, the system named is CD3+ T lymphocytes. Kind of test: Determination of CD4+ CD127low/negative CD25high Foxp3+ T cells. In kind it is cell-based, human. As to conditions: T cells stimulated 6 days with treated, LPS-matured DCs. The procedure:
CD3^+ T lymphocytes were purified from mononuclear cells by negative selection using an EasySep® Human T Cell Enrichment Kit (StemCell Technologies) following the manufacturer's instructions. Purity was >95% in all experiments. Enriched T cells were plated (10^5 cells/well) in 96-well round-bottom plates. […] Stained cells were analysed using a FACSCanto II (Becton Dickinson) and the results were analysed using FlowJo software (Tree Star, Inc, OR, USA).

[3] abbreviates: transcriptional profile, treated and LPS-induced DCs.

The record followed here is patent US10106589B2, “Compositions and methods for immunomodulation” (FUNDACIO INSTITUT D'INVESTIGACIO BIOMEDICA DE BELLVITGE …, priority 2011, dated 2018).

B1: C4BP α7β1: major C4BP isoform, 7 identical α-chains and 1 β-chain, purified from pooled human plasma (protein, UniProt P04003 49-597; P20851 18-252, looked up)
C4b-binding protein alpha …: NCGPPPTLSFAAPMDITLTETRFKTGTTLKYTCLPGYVRSHSTQTLTCNSDGEWVYNTFCIYKRCRHPGELRNGQVEIKTDLSFGSQIEFSCSEGFFLIGSTTSRCEVQDRGVGWSHPLPQCEIVKCKPPPDIRNGRHSGEENFYAYGFSVTYSCDPRFSLLGHASISCTVENETIGVWRPSPPTCEKITCRKPDVSHGEMVSGFGPIYNYKDTIVFKCQKGFVLRGSSVIHCDADSKWNPSPPACEPNSCINLPDIPHASWETYPRPTKEDVYVVGTVLRYRCHPGYKPTTDEPTTVICQKNLRWTPYQGCEALCCPEPKLNNGEITQHRKSRPANHCVYFYGDEISFSCHETSRFSAICQGDGTWSPRTPSCGDICNFPPKIAHGHYKQSSSYSFFKEEIIYECDKGYILVGQAKLSCSYSHWSAPAPQCKALCRKPELVNGRLSVDKDQYVEPENVTIQCDSGYGVVGPQSITCSGNRTWYPEVPKCEWETPEGCEQVLTGKRLMQCLPNPEDVKMALEVYKLSLEIEQLELQRDSARQSTLDKEL
C4b-binding protein beta chain: SDAEHCPELPPVDNSIFVAKEVEGQILGTYVCIKGYHLVGKKTLFCNASKEWDNTTTECRLGHCPDPVLVNGEFSSSGPVNVSDKITFMCNDHYILKGSNRSQCLEDHTWAPPFPICKSRDCDPPGNPVHGYFEGNNFTLGSTISYYCEDRYYLVGVQEQQCVDGEWSSALPVCKLIQEAPKPECEKALLAFQESKNLCEAMENFMQQLKESGMTMEELKYSLELKKAELKAKLL
As for B1, in the test with human Mo-DCs [1] (RT-qPCR, pretreated, LPS-matured Mo-DCs), the CCR7 transcript level entry is given as “but not with C4BP α7β1, significantly down-regulated”. In addition, the “surface morphology of Mo-DCs” value with human Mo-DCs [2] (SEM after 48 h LPS maturation) is reported as “analogous appearance than untreated Mo-DCs”. Besides, in the test with NSG immunodeficient mice, the survival time result is “no significant protection”.

B2: C4BP (β^−): C4BP isoforms lacking beta chain: C4BP (α7β0) or C4BP (α6β0) (protein, UniProt P04003 49-597, looked up)
C4b-binding protein alpha …: B1 C4b-binding protein alpha …
With B2, in the test with human Mo-DCs [1] (setting [3]), the BIC-1 entry was “+” and the IDO entry is recorded as “−”. Also, the “Dendrite density and lenght” value in the test with human Mo-DCs [2] (morphology, treated and LPS-induced DCs) is on record as “+”. The “Endocytosis (DQ-OVA)” value in the test with immature Mo-DCs is “+”. The “percentage of CD4+Foxp3+ and CD25^high, CD127^low/negative cells” value in the test with CD3+ T lymphocytes is on record as “significant increase”. Besides, in the test on NSG immunodeficient mice, the survival time result was “significantly prolonged survival time”.
